Results reported in the nanobody polyreactivity screen of Harvey et al. (2022).

test: yeast display, Sf9 membrane polyspecificity reagent, FACS + sequencing; frameworks hold sequencing errors
Outline: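 Using colony PCR, genes from sorted yeast display clones were amplified, then sequenced on MiSeq at 2 × 250 and filtered by CDR length. The clones had been stained with 10% biotinylated, detergent-solubilized Sf9 membrane reagent for 1 hour at 4 °C and sorted by FACS into low and high (top ~1%) gates on anti-HA and streptavidin fluorescence. Polyreactivity labels come from the gate of origin.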

| Sequence | polyreactivity (PSR sort gate) |
| --- | --- |
| QVQLVESGGGLVQAGGSLRLSCAASGLIFRYYAMGWYRQATGKEREFVAAITWRTGSTYYADSVKGRFTISRDNAKNTVYLQMNSLKPEDTAVYYCAARGGRRYDYWGQGTQVTVSS | high polyreactivity |
| QVQLVESGGGLVQAGGSLRLSCAASGLIFSAYAMGWYRQAPGKERELVAGISRRGSTYYADSVKGRFTISRDNAKNTVYLQMNSLKPEDTAVYYCAAYFRVRFRASGYDYWGQGTQVTVSS | high polyreactivity |
| QVQLVESGGGLVQAGGSLRLSCAASGLIFSDYAMGWYRQEPGKERELVAAIRSGGRTYYADSVKGRFTISRDNAKNTVYLQMNSLKPEDTAVYYCNKLYRRYPVPREYDYWGQGTQVTVSS | high polyreactivity |
| QVQLVESGGGLVQAGGSLRLSCAASGLIFSGYTMGWYRQAPGKERELVAAISKSGGNTYYADSVTGRFTISRDNAKNTVYLQMNSLKPEDTAVYYCNRDVTYYRGYDYWGQGTQVTVSS | high polyreactivity |
| QVQLVESGGGLVQAGGSLRLSCAASGLIFSHNVMGWYRQAPGKERELVAAISKGGGSTYYADSVKGRFTISRDNAKNTVYLQLNSLIPEDTAVYYCAAPYWSKYRQTEYDYWGQGTQVTVSS | high polyreactivity |
| QVQLVESGGGLVQAGGSLRLSCAASGLIFSLYAMGWSRQAPGKDRELVADITVDGDGSTYYADSVKGRFTISRDIAKNTVYLQMNSLIPEDTAVYYCAADAYFGWYYYWGQGTQVTVSS | high polyreactivity |
| QVQLVESGGGLVQAGGSLRLSCAASGLIFSRNAMGWYRQAPGKERELVAAISTGGSTYYADSVKGRFTISRDNAKNTVYLQMNSLKPEATAVYDCAAAPGYIYEYWGQGTQVTVSS | low polyreactivity |
| QVQLVESGGGLVQAGGSLRLSCAASGLIFSRYTMGWYRQAPGKERELVAAISGRGTSTYYADSVKGRFTISRDNAKNTVYLQMNSLKPEDTAVYYCATSKSYSAFDYWGQGTQVTVSS | high polyreactivity |
| QVQLVESGGGLVQAGGSLRLSCAASGLIFSSYAMGWYRQAPGKEREFVAAINYNGGRTYYADSVKGRFTISRDNAKNTVYLQMNSLKPEDTAVYYCDGRYGSGGDYWGQGTQVTVSS | low polyreactivity |
| QVQLVESGGGLVQAGGSLRLSCAASGLIFSSYAMGWYRQAPGKERELVAAITGSGGRTYYADSVKGRFTISRDNAKNTVYLQMNSLKPEDTAVYYCAAKYPAPRYYTGYDYWGQGTQVTVSS | high polyreactivity |
| QVQLVESGGGLVQAGGSLRLSCAASGLIFSVYGMGWYRQAPGKERELVAAISSRGGSTYYADSVKGRFTISRDLAKNTVYLQMNSLKQEDTAVYYCAARSNYRMDYWGQGTQVTVSS | high polyreactivity |
| QVQLVESGGGLVQAGGSLRLSCAASGLIFSWYAMGWYRQAPGKERELVAAISSGSSTNYADSVKGRFTISRDNAKNTVYLQRNSLKPEDTAVYYCAARIYYTSRLRMYYWGQGTQVTVSS | high polyreactivity |
| QVQLVESGGGLVQAGGSLRLSCAASGLIFSYNAMGWYRQAPGKERELVAAISYSGGSTYYADSVKGRYTISRDNAKYTVYLQMNSLKPEDTAVYYCAAVLSPDFYYWGQGTQVTVSS | high polyreactivity |
| QVQLVESGGGLVQAGGSLRLSCAASGLIFTGNTMGWSRQAPGKETELVADITWSDGSTYYADSVKGRFTISRDTENNTVYLQMNSLKPEDTAVYYCAADSVLDRPVLYLWPWYLGDYWGQGTQVTVSS | low polyreactivity |
| QVQLVESGGGLVQAGGSLRLSCAASGLIFTPYAMGWYRQAPGKERELVAAINYGGSRTYYADSVKGRFTISRDNAKNTVYLQMNSLKPEDTAVYYCAARGFTLSYVDMYYWGLGTQVTVSS | high polyreactivity |
| QVQLVESGGGLVQAGGSLRLSCAASGLIFTPYPMGWYRQAPGKERELVAAISVSGGRTYYADSVKGRITISRDNEKNTVYLQMNSLKPEDTAVYYCAASDRYGGRDYWGQGTQVTVSS | high polyreactivity |
| QVQLVESGGGLVQAGGSLRLSCAASGLIFTRYAMGWYRQAPGKERELVAAISYSGTSTYYADSVKGRFTISRDNAKNTVYLQMNSLKPEDTAVYYCAAAYSRGSGVGRYRLDYWGQGTQVTVSS | high polyreactivity |
